B1: Rpf2 within Alb1-TAP purified pre-60S particles (natural protein)
chain: MIRTVKPKNARAKRALVKREAKLVENVKQALFIPGQSCNKNLHDIMVDLSALKKPDMKRFNRKNDIHPFEDMSPLEFFSEKNDCSLMVLMTSSKKRKNNMTFIRTFGYKIYDMIELMVADNFKLLSDFKKLTFTVGLKPMFTFQGAAFDTHPVYKQIKSLFLDFFRGESTDLQDVAGLQHVISMTIQGDFQDGEPLPNVLFRVYKLKSYKSDQGGKRLPRIELVEIGPRLDFKIGRIHTPSPDMVTEAHKKPKQLEMKTKKNVELDIMGDKLGRIHMGKQDLGKLQTRKMKGLKSKFDQGTEEGDGEVDEDYEDEASYSDDGQEYEEEFVSATDIEPSAKRQKK
B4: Rpl5 (uL18) within Alb1-TAP purified pre-60S particles (natural protein)
chain: MAFQKDAKSSAYSSRFQTPFRRRREGKTDYYQRKRLVTQHKAKYNTPKYRLVVRFTNKDIICQIISSTITGDVVLAAAYSHELPRYGITHGLTNWAAAYATGLLIARRTLQKLGLDETYKGVEEVEGEYELTEAVEDGPRPFKVFLDIGLQRTTTGARVFGALKGASDGGLYVPHSENRFPGWDFETEEIDPELLRSYIFGGHVSQYMEELADDDEERFSELFKGYLADDIDADSLEDIYTSAHEAIRADPAFKPTEKKFTKEQYAAESKKYRQTKLSKEERAARVAAKIAALAGQQ

For test [1], the target named is T1, Rsa4 ribosome assembly factor within Alb1-TAP purified pre-60S particles (yeast (endogenous in pre-60S particles), UniProt P25382 1-515).
T1 sequence: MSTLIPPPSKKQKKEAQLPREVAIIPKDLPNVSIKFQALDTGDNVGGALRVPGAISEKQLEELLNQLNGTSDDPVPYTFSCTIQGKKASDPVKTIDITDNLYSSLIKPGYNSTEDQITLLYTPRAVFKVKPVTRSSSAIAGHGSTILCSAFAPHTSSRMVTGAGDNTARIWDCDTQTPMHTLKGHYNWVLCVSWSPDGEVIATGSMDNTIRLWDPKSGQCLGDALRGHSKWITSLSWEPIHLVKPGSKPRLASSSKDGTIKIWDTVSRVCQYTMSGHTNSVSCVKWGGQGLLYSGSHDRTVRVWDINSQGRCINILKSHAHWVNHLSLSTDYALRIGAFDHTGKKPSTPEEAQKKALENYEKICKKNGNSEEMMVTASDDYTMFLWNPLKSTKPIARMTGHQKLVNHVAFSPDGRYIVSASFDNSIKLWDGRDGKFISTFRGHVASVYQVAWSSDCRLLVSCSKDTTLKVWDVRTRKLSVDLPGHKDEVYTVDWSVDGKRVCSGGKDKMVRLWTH
Put plainly: cryo-EM structure.

The target in test [2] is T2, Rpf2, full-length, N-terminal 6xHis-tagged (Saccharomyces cerevisiae) (Saccharomyces cerevisiae, UniProt P36160 1-344).
T2 sequence: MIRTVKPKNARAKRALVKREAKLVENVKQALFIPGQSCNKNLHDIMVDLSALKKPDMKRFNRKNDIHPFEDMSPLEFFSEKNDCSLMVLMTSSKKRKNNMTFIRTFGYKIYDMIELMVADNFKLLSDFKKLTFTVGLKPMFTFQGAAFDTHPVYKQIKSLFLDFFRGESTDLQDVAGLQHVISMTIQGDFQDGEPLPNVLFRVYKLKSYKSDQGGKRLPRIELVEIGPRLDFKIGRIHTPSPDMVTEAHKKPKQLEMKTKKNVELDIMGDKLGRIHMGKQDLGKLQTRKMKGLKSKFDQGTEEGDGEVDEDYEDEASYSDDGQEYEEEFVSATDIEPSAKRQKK
Put plainly: SEC + other: SAXS.

Test [3] addresses B4. Put plainly: cryo-EM structure.
Test [4] deals with B1. Description: cryo-EM structure.

With B1, the binding result in test [1] is given as “binds”.

B2: Rrs1, full-length (Saccharomyces cerevisiae) (natural protein)
chain: MSAEDYKNLPVTVEKPIPVVYDLGNLAAFDSNVLDKNDLDSSNARREEKIKSLTRDNVQLLINQLLSLPMKTTTESVGGTGGQSSVMTLLQLPDPTTDLPREKPLPKAKAMTKWEKFAAKKGIKPKERAGKMIYDEASGEWVPKWGYKGANKKLDDQWLVEVDDKVKGTDNELIDPRTLNRAERKRLVKKNEKQQRRNMKNAL
What is called stoichiometry N is the number of molecules, sites or subunits per partner or assembly. In the case of B2, in test [2], the “stoichiometry N” value came out at 1.

B3: Rrs1 within Alb1-TAP purified pre-60S particles (natural protein)
chain: MSAEDYKNLPVTVEKPIPVVYDLGNLAAFDSNVLDKNDLDSSNARREEKIKSLTRDNVQLLINQLLSLPMKTTTESVGGTGGQSSVMTLLQLPDPTTDLPREKPLPKAKAMTKWEKFAAKKGIKPKERAGKMIYDEASGEWVPKWGYKGANKKLDDQWLVEVDDKVKGTDNELIDPRTLNRAERKRLVKKNEKQQRRNMKNAL
Regarding B3, the binding result in test [3] and in test [1] was “binds” throughout.

As to B4, the binding result in test [4] is recorded as “binds”.
